Results: US20180037644A1 (Pfizer, published 2018)
Read-outs that look alike come from different tables or passages of the source.

T1: human IL-33 (mm2) (human, UniProt O95760 112-270)
T1 chain: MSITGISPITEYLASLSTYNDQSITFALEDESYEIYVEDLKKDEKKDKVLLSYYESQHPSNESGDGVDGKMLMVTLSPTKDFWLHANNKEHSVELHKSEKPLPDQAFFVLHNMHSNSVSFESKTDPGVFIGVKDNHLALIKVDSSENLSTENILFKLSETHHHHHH


Assays:
[1] = target: T1, human IL-33 (mm2); experiment: cell-based or functional assay
[2] = target: T1, human IL-33 (mm2); experiment: cell-based or functional assay
[3] = target: T1, human IL-33 (mm2); experiment: BIAcore, IgG captured by anti-human Fc, 125 nM IL-33 (mm2)
Description: Binding to human and cynomolgus monkey IL-33 was measured by surface plasmon resonance using a BIAcore T200 instrument. An anti-human Fc antibody was immobilized on a CM5 chip, and anti-IL-33 antibodies were captured.

[4] = target: T1, human IL-33 (mm2); experiment: cell-based or functional assay

Binder | estimated IC50, HEK293 ST2 NFkB [2] [nM] | koff [3] [s⁻¹] | IC50, HEK293 ST2 NFkB [4] [nM] | also measured
30A1 chimera (antibody, human IgG1, kappa) heavy: QVNLLQSGATLVKPGASMKMSCKASGYSFTDYWVSWVKQSHGKSLEWIGEIYPNSGANNFNKEFKDKATLTVDKSTSTAYMELTRLTSEDSAVYYCTRGPYYYSSQIIFAYWGQGTLVTVSSASTKGPSVFPLAPSSKSTSGGTAALGCLVKDYFPEPVTVSWNSGALTSGVHTFPAVLQSSGLYSLSSVVTVPSSSLGTQTYICNVNHKPSNTKVDKKVEPKSCDKTHTCPPCPAPEAAGAPSVFLFPPKPKDTLMISRTPEVTCVVVDVSHEDPEVKFNWYVDGVEVHNAKTKPREEQYNSTYRVVSVLTVLHQDWLNGKEYKCKVSNKALPAPIEKTISKAKGQPREPQVYTLPPSREEMTKNQVSLTCLVKGFYPSDIAVEWESNGQPENNYKTTPPVLDSDGSFFLYSKLTVDKSRWQQGNVFSCSVMHEALHNHYTQKSLSLSPGK light: IIVMTQSPKSMSISVGDRVTMNCKASQNVGNNIAWYRQKPGQSPELLIYYASNRYTGVPDRFTGGGYGTDFTLTINSVQAEDAAFYYCQRIYNSPPTFGGGTKVELKRTVAAPSVFIFPPSDEQLKSGTASVVCLLNNFYPREAKVQWKVDNALQSGNSQESVTEQDSKDSTYSLSSTLTLSKADYEKHKVYACEVTHQGLSSPVTKSFNRGEC |  |  |  | IC50, HEK293 ST2 NFkB [1]: 0.27 nM
7E8 chimera (antibody, human IgG1, kappa, V domains shown) VH: EVQLVETGGGLVQPGRSLKLSCKTSGFTFSSYWMYWIRQAPGKGLEWVSSITPNGGNTYYPDSVKGRFTISRDNAENTIYLQMSSLRSEDTATYFCAKGHYYYTSYSLGYWGQGSLVTVSS VL: EIQMTQSPSVLSASVGDRVTLSCKASQNINKHLDWYQQKLGEAPKLLIYFTNNLQTGIPSRFSGSGSGTDCTLTINSLQPGDVATYFCFQYNNGWTFGGGTKLELDR |  |  |  | IC50, HEK293 ST2 NFkB [1]: 0.049 nM
7E8H/9B3K (antibody, human IgG1, kappa, V domains shown) VH: EVQLVETGGGLVQPGRSLKLSCKTSGFTFSSYWMYWIRQAPGKGLEWVSSITPNGGNTYYPDSVKGRFTISRDNAENTIYLQMSSLRSEDTATYFCAKGHYYYTSYSLGYWGQGSLVTVSS VL: DIQMTQSPSVLSASVGDRVTLSCKASHNINKHLDWYQQKVGEAPKLLIYFTNNLQTGIPSRFSGSGSGTDYTLTISSLQPEDVATYFCFQYNSGWTFGQGTKVEIKR | 0.015 | 0.000385 |  | 
9B3-15 (antibody, human IgG1, kappa, V domains shown) VH: EVQLVETGGGLVQPGRSLKLSCVASGFTFSNYWMYWIRQAPGMGLEWVSSINNDGGNTYYLDSVKGRFTISRNNAENTVYLQMNSLRSEDTATYYCAKGHYSYSSYSFANWGQGTLVTVSS VL: DIQMTQSPSVLSASVGDRVTLSCKASHNINKHLDWYQQKVGEAPKLLIYFTNNLQTGIPSRFSGSGSGTDYTLTISSLQPEDVATYFCFQYNSGWTFGQGTKVEIKR | 0.101 | 0.000479 |  | 
9B3-36 (antibody, human IgG1, kappa, V domains shown) VH: EVQLVETGGGLVQPGRSLKLSCVASGFTFSNYWMYWIRQAPGMGLEWVSSINNDGGNTYYLDSVKGRFTISRNNAENTVYLQMNSLRSEDTATYYCAKGHYYYTSYSFAYWGQGTLVTVSS VL: DIQMTQSPSVLSASVGDRVTLSCKASHNINKHLDWYQQKVGEAPKLLIYFTNNLQTGIPSRFSGSGSGTDYTLTISSLQPEDVATYFCFQYNSGWTFGQGTKVEIKR | 0.251 | 0.000289 |  | 
9B3-31v2 (antibody, human IgG1, kappa, V domains shown) VH: EVQLVETGGGLVQPGRSLKLSCVASGFTFSNYWMYWIRQAPGMGLEWVSSINNDGGNTYYLDSVKGRFTISRNNAENTVYLQMNSLRSEDTATYYCAKGHYYYSSYSFAFWGQGTLVTVSS VL: DIQMTQSPSVLSASVGDRVTLSCKASHNINKHLDWYQQKVGEAPKLLIYFTNNLQTGIPSRFSGSGSGTDYTLTISSLQPEDVATYFCFQYNSGWTFGQGTKVEIKR | 0.202 | 0.000706 |  | 
9B3-162 (antibody, human IgG1, kappa, V domains shown) VH: EVQLVETGGGLVQPGRSLKLSCVASGFTFSNYWMYWIRQAPGMGLEWVSSINNDGGNTYYLDSVKGRFTISRNNAENTVYLQMNSLRSEDTATYYCAKGHYYYSSYSFGYWGQGTLVTVSS VL: DIQMTQSPSVLSASVGDRVTLSCKASHNINKHLDWYQQKVGEAPKLLIYFTNNLQTGIPSRFSGSGSGTDYTLTISSLQPEDVATYFCFQYNSGWTFGQGTKVEIKR | 0.067 | 0.000642 |  | 
9B3-79 (antibody, human IgG1, kappa, V domains shown) VH: EVQLVETGGGLVQPGRSLKLSCVASGFTFSNYWMYWIRQAPGMGLEWVSSINNDGGNTYYLDSVKGRFTISRNNAENTVYLQMNSLRSEDTATYYCARGHYYYTSYSFAYWGQGTLVTVSS VL: DIQMTQSPSVLSASVGDRVTLSCKASHNINKHLDWYQQKVGEAPKLLIYFTNNLQTGIPSRFSGSGSGTDYTLTISSLQPEDVATYFCFQYNSGWTFGQGTKVEIKR | 0.063 | 0.000543 |  | 
IL33-57 (antibody, human IgG1, kappa, V domains shown) VH: EVQLVESGGGLVQPGGSLRLSCAASGFTFSSYWMYWVRQAPGKGLEWVASITPNGGNTYYPDSVKGRFTISRDNAKNSLYLQMNSLRAEDTAVYYCARGHYYYTDYSLGYWGQGTLVTVSS VL: DIQMTQSPSSLSASVGDRVTITCKASQNINKHLDWYQQKPGKAPKLLIYFTNNLQTGVPSRFSGSGSGTDFTLTISSLQPEDFATYYCFQYNNGWTFGGGTKVEIKR |  |  | 0.31 | 
IL33-58 (antibody, human IgG1, kappa, V domains shown) VH: EVQLVESGGGLVQPGGSLRLSCAASGFTFSSYWMYWVRQAPGKGLEWVASITPLGGNTYYPDSVKGRFTISRDNAKNSLYLQMNSLRAEDTAVYYCARGHYYYTSYSLGYWGQGTLVTVSS VL: DIQMTQSPSSLSASVGDRVTITCKASQNINKHLDWYQQKPGKAPKLLIYFTNNLQTGVPSRFSGSGSGTDFTLTISSLQPEDFATYYCFQYNNGWTFGGGTKVEIKR |  |  | 0.027 | 
IL33-74 (antibody, human IgG1, kappa, V domains shown) VH: EVQLVESGGGLVQPGGSLRLSCAASGFTFSSYWMYWVRQAPGKGLEWVASITPNGGNTYYPDSVKGRFTISRDNAKNSLYLQMNSLRAEDTAVYYCARGHYYYTSYSLGYWGQGTLVTVSS VL: DIQMTQSPSSLSASVGDRVTITCKASQNINDHLDWYQQKPGKAPKLLIYFTNNLQTGVPSRFSGSGSGTDFTLTISSLQPEDFATYYCFQYNNGWTFGGGTKVEIKR |  |  | 0.174 | 
IL33-61 (antibody, human IgG1, kappa, V domains shown) VH: EVQLVESGGGLVQPGGSLRLSCAASGFTFSSYWMYWVRQAPGKGLEWVASITPNGGETYYPDSVKGRFTISRDNAKNSLYLQMNSLRAEDTAVYYCARGHYYYTDYSLGYWGQGTLVTVSS VL: DIQMTQSPSSLSASVGDRVTITCKASQNINKHLDWYQQKPGKAPKLLIYFTNNLQTGVPSRFSGSGSGTDFTLTISSLQPEDFATYYCFQYNNGWTFGGGTKVEIKR |  |  | 0.595 | 
IL33-75 (antibody, human IgG1, kappa, V domains shown) VH: EVQLVESGGGLVQPGGSLRLSCAASGFTFSSYWMYWVRQAPGKGLEWVASITPNGGNTYYPDSVKGRFTISRDNAKNSLYLQMNSLRAEDTAVYYCARGHYYYTSYSLGYWGQGTLVTVSS VL: DIQMTQSPSSLSASVGDRVTITCKASQNIDKHLDWYQQKPGKAPKLLIYFTNNLQTGVPSRFSGSGSGTDFTLTISSLQPEDFATYYCFQYNNGWTFGGGTKVEIKR |  |  | 0.156 | 
IL33-80 (antibody, human IgG1, kappa, V domains shown) VH: EVQLVESGGGLVQPGGSLRLSCAASGFTFSSYWMYWVRQAPGKGLEWVASITPNGGNTYYPDSVKGRFTISRDNAKNSLYLQMNSLRAEDTAVYYCARGHYYYTSYSLGYWGQGTLVTVSS VL: DIQMTQSPSSLSASVGDRVTITCKASQNINKHLDWYQQKPGKAPKLLIYFTNNLQDGVPSRFSGSGSGTDFTLTISSLQPEDFATYYCFQYNNGWTFGGGTKVEIKR |  |  | 0.161 | 
IL33-62 (antibody, human IgG1, kappa, V domains shown) VH: EVQLVESGGGLVQPGGSLRLSCAASGFTFSSYWMYWVRQAPGKGLEWVASITPNGGDTYYPDSVKGRFTISRDNAKNSLYLQMNSLRAEDTAVYYCARGHYYYTDYSLGYWGQGTLVTVSS VL: DIQMTQSPSSLSASVGDRVTITCKASQNINKHLDWYQQKPGKAPKLLIYFTNNLQTGVPSRFSGSGSGTDFTLTISSLQPEDFATYYCFQYNNGWTFGGGTKVEIKR |  |  | 0.885 | 
IL33-81 (antibody, human IgG1, kappa, V domains shown) VH: EVQLVESGGGLVQPGGSLRLSCAASGFTFSSYWMYWVRQAPGKGLEWVASITPNGGNTYYPDSVKGRFTISRDNAKNSLYLQMNSLRAEDTAVYYCARGHYYYTSYSLGYWGQGTLVTVSS VL: DIQMTQSPSSLSASVGDRVTITCKASQNINKHLDWYQQKPGKAPKLLIYFTNNLQEGVPSRFSGSGSGTDFTLTISSLQPEDFATYYCFQYNNGWTFGGGTKVEIKR |  |  | 0.168 | 
